Assay results taken from patent EP4554620A1 (dated 2025).

Tests used:
[1] = molecular target: T1, Human TIGIT residues 23-128 LEU65A mutant (human, UniProt Q495A1 23-128); experiment: SPR, TIGIT alanine mutants
T1 construct: not shown: C-terminal HIS tag
T1 chain: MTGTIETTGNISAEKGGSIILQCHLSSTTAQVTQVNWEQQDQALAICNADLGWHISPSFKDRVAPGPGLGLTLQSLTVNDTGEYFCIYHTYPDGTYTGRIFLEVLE

[2] = molecular target: T2, Human TIGIT residues 23-128 ILE68A mutant (human, UniProt Q495A1 23-128); experiment: SPR, TIGIT alanine mutants
T2 construct: not shown: C-terminal HIS tag
T2 chain: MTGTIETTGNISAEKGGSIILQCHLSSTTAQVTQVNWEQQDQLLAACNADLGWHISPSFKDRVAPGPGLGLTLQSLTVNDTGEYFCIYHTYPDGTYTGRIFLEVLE

- fold lower binding affinity against WT TIGIT [1]: ~25 fold
- fold lower binding affinity against WT TIGIT [2]: ~40 fold
B1: Tiragolumab (antibody, V domains shown)
VH: EVQLQQSGPGLVKPSQTLSLTCAISGDSVSSNSAAWNWIRQSPSRGLEWLGKTYYRFKWYSDYAVSVKGRITINPDTSKNQFSLQLNSVTPEDTAVFYCTRESTTYDLLAGPFDYWGQGTLVTVSS
VL: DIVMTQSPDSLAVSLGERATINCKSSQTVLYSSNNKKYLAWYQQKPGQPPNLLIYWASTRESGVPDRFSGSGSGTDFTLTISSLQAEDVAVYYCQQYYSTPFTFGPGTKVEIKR
